Publication PMC8188405, “When is an obscurin variant pathogenic? The impact of Arg4344Gln and Arg4444Trp variants on protein–protein interactions and protein stability” (Human Molecular Genetics, 2021)

B3: obscurin Ig58-Ig59 (wild type) (domain or fragment, human, UniProt Q5VST9 4337-4521, looked up)
chain: TAKNTVVRGLENVEALEGGEALFECQLSQPEVAAHTWLLDDEPVHTSENAEVVFFENGLRHLLLLKNLRPQDSCRVTFLAGDMVTSAFLTVRGWRLEILEPLKNAAVRAGAQACFTCTLSEAVPVGEASWYINGAAVQPDDSDWTVTADGSHHALLLRSAQPHHAGEVTFACRDAVASARLTVLG
modifications: labelled with the Monolith NT Protein Labeling kit RED-NHS (in the MST experiments only)
notes: obscurin, human, domains Ig58-Ig59, residues 4337-4521 based on NM_001098623/NP_001092093 (transcript variant B); The vector encodes His6 followed by a TEV cleavage site; no cleavage is described; The His6 tag holds the protein on Ni-NTA beads in the pull-downs; also called Ig58-Ig59WT; O5859; source: E. coli BL21-CodonPlus (DE3)-RIPL, purified (Ni-NTA); not shown: His6, N-terminal, kept

Legend:
[1] = target: B3; test: MST; obscurin Ig58-Ig59 labelled with RED-NHS (typically 50-100 nM); unlabelled PLN peptides diluted serially; PBS, 0.2% (v/v) Triton X-100, 2 mM DTT; Monolith NT.115; one-site binding model; details: both partners purified
titin Z8-Z9 = target: T1, titin Z8-Z9 (human, UniProt Q8WZ42-12 1698-1931); test: MST; obscurin Ig58-Ig59 labelled with RED-NHS (typically 50-100 nM); unlabelled titin Z8-Z9 or ObB diluted serially; PBS, 2 mM DTT; Monolith NT.115; one-site binding model; details: both partners purified
T1 construct: titin, human, domains Z8-Z9, residues 1698 to 1931 based on NM_001267550/NP_001254479 (transcript variant IC); numbers count on: transcript variant IC; The vector encodes His6 followed by a TEV cleavage site; no cleavage is described; source: E. coli BL21-CodonPlus (DE3)-RIPL, purified (Ni-NTA)
T1 sequence (looked up): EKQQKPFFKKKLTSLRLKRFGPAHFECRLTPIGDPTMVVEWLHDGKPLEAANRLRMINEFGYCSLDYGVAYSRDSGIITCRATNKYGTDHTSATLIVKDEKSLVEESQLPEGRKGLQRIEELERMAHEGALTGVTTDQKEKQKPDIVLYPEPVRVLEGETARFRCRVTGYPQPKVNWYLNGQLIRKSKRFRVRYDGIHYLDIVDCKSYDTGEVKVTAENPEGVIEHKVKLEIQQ

B1: phospholamban transmembrane region PLN(23-52) (peptide, UniProt P26678 23-52, looked up)
chain: QARQKLQNLFINFCLILICLLLICIIVMLL
notes: phospholamban, human, transmembrane region, residues 23-52 (synthetic); source: synthetic peptide, bought: Pepscan
[1]
  Kd: 58.5 µM

B2: human full-length phospholamban (peptide, UniProt P26678 1-52, looked up)
chain: MEKVQYLTRSAIRRASTIEMPQQARQKLQNLFINFCLILICLLLICIIVMLL
notes: phospholamban, human, full length (synthetic); Kept in buffer with Triton X-100; seen on gels as monomeric and pentameric bands, both of which were pulled down by Ig58-Ig59; also called PLN; source: synthetic peptide, bought: Pepscan
[1]
  Kd: 18.9 µM

## B3
Titin Z8-Z9
  Kd: 7.8 µM

B4: obscurin Ig58-Ig59 R4344Q, A4484T double variant (domain or fragment, human, UniProt Q5VST9 4337-4521, looked up)
chain: TAKNTVVQGLENVEALEGGEALFECQLSQPEVAAHTWLLDDEPVHTSENAEVVFFENGLRHLLLLKNLRPQDSCRVTFLAGDMVTSAFLTVRGWRLEILEPLKNAAVRAGAQACFTCTLSEAVPVGEASWYINGAAVQPDDSDWTVTTDGSHHALLLRSAQPHHAGEVTFACRDAVASARLTVLG
modifications: labelled with the Monolith NT Protein Labeling kit RED-NHS
notes: source: E. coli BL21-CodonPlus (DE3)-RIPL, purified (Ni-NTA)
Titin Z8-Z9
  binding result: binds

B5: obscurin Ig58-Ig59 R4344Q (domain or fragment, human, UniProt Q5VST9 4337-4521, looked up)
chain: TAKNTVVQGLENVEALEGGEALFECQLSQPEVAAHTWLLDDEPVHTSENAEVVFFENGLRHLLLLKNLRPQDSCRVTFLAGDMVTSAFLTVRGWRLEILEPLKNAAVRAGAQACFTCTLSEAVPVGEASWYINGAAVQPDDSDWTVTADGSHHALLLRSAQPHHAGEVTFACRDAVASARLTVLG
modifications: labelled with the Monolith NT Protein Labeling kit RED-NHS (in the MST experiments only)
notes: The variant occurs in the human population (found in up to 15% of African Americans); also called R4344Q variant; Arg4344Gln; source: E. coli BL21-CodonPlus (DE3)-RIPL, purified (Ni-NTA); not shown: His6, N-terminal, kept
Titin Z8-Z9
  Kd: 6.6 µM

B6: obscurin Ig58-Ig59 R4444W (domain or fragment, human, UniProt Q5VST9 4337-4521, looked up)
chain: TAKNTVVRGLENVEALEGGEALFECQLSQPEVAAHTWLLDDEPVHTSENAEVVFFENGLRHLLLLKNLRPQDSCRVTFLAGDMVTSAFLTVRGWRLEILEPLKNAAVWAGAQACFTCTLSEAVPVGEASWYINGAAVQPDDSDWTVTADGSHHALLLRSAQPHHAGEVTFACRDAVASARLTVLG
modifications: labelled with the Monolith NT Protein Labeling kit RED-NHS
notes: The variant occurs in the human population; also called R4444W variant; Arg4444Trp; source: E. coli BL21-CodonPlus (DE3)-RIPL, purified (Ni-NTA)
Titin Z8-Z9
  Kd: 6.4 µM
